Tests used:
[1] = Removal of aglycones through adsorption by PVPP, analysed by RP-HPLC; assay type: physicochemical; settings: ratio of compounds removed by PVPP over that in the untreated samples
Protocol: FIG. 7: Removal of different aglycones through adsorbtion by PVPP. The removal of a) trans-resveratrol (100%), b) esculetin (70%), c) daidzein (81%), and d) scopoletin (92%) by PVPP was analyzed by RP-HPLC. The efficiency was defined as the ratio of compounds removed by PVPP over that in the untreated samples;
(§1) Reverse-phase HPLC (RP-HPLC): RP-HPLC (Agilent 1100 system with Photodiode Array Detector, Agilent, U.K.) analysis was carried out using a Columbus 5-μ C18 column (150×3.20 mm, Phenomenex, U.K.). Glucosides were separated from their respective aglycones using a linear gradient of acetonitrile/0.1% formic acid (v/v) in H2O: 10-45% (trans-resveratrol/glucosides), 10-50% (daidzein/glucosides) at 0.5 mL/min over 20 min and monitored at 280 nm and 250 nm. Separation of scopoletin/scopolin and esculetin/esculin was carried out using the conditions described previously.^[11]
(§2) Stage 3, detection: 50 μl of the reaction mix were transferred to a 96-well filtration plate (Abgene, U.K.), mixed with an equal volume of PVPP aqueous suspension (25 g/L), shaken for 1 h at 25° C. before centrifugation (1000 g, 5 min). To each filtrate, 50 mM 2-morpholino-ethanesulfonic acid buffer (MES) (pH 7.0), ABTS™ (0.1 mM), peroxidase (2 U) and glucose oxidase (2 U) were added to a final volume of 125 μl. The formation of the green dye was monitored at 405 nm at 30 min using a plate reader (Bio-Tec Instruments Inc., U.S.A).

[2] = Whole-cell biocatalysis screen of GT library against the aglycone trans-resveratrol (RP-HPLC of glucosides); assay type: cell-based, E. coli; settings: 500 µM aglycone, 44 h, 25° C.
Source text: FIG. 4: Screening of a GT-library against the aglycone trans-resveratrol. a) The readings at A405 nm for D-glucose detection are presented in a colored code format. b) Examples of RP HPLC trace of active and non active GTs in whole cell biocatalysis are illustrated. c) The regioselectivity of the active GTs towards trans-resveratrol, defined by the percentage of a regiospecific glucoside in the total amount of monoglucosides formed;
as §1
The cDNA library of 96 Arabidopsis thaliana GTs was subcloned into the multiple cloning site of the glutathione-S-transferase (GST) gene fusion vector pGEX-2T (Amersham Biosciences, U.K.) as described previously^[10] and transformed into the strain E. coli BL21 (DE3) for use in the screening method.
Stage 1, biotransformation: single colonies of the GT library grown on LB-agar plates overnight were transferred to individual wells in a 96-well bacterial culture plate containing 400 μl 2×YT medium (16 g/L bacto tryptone, 10 g/L yeast extract, 5 g/L NaCl) and 50 μg/mL ampicillin. The plate was covered with an adhesive plate seal (Abgene, U.K.) and incubated at 37° C. (250 rpm). The bacterial growth was monitored at 595 nm by a plate reader. After 4 h, the cultures had reached exponential phase. The plate was centrifuged (4000 g, 10 min), the supernatants discarded and cell pellets were resuspended in isopropyl-D-thiogalactopyranoside (0.1 mM), 2-(N-morpholino)ethanesulfonic acid (50 mM, pH 7.0), ampicillin (50 μg/mL), L-arabinose (10 g/L) and 500 µM of aglycone to a total whole-cell reaction volume of 400 μl/well. The 96-well plate was closed with a gas permeable adhesive plate seal, wrapped in alu foil for light protection and incubated at 25° C. (250 rpm). After 44 h the cultures were centrifuged (4000 g, 15 min) and the supernatants analyzed.
Stage 2, cleavage: supernatants (100 μl) were transferred to a microtiter plate, 1 μl of β-glucosidase (1 U) was added and the plate incubated for 90 min at 37° C.
as §2
The utility of the screening method and regioselective biocatalysis by the GTs are illustrated in FIGS. 2 and 3. Thirteen GTs recognized daidzein and twenty-five GTs were identified that glycosylated trans-resveratrol. […] The mono- and di-glucosides of daidzein (4-6) and trans-resveratrol (8-10), eluting earlier than the two aglycones under the RP-HPLC conditions used (FIGS. 2b and 3b), were identified using external standards when available, or by electrospray liquid chromatography-mass spectrometry (LC-MS). ^1H-NMR analysis was used to confirm the structure of the monoglucosides (Table 1, SEQ ID NO: 1-107). […] Similarly, regioselective glycosylation of trans-resveratrol was observed. […] Only trace levels of a diglucoside were observed under the reaction conditions used.

Row | Molecule | removal by PVPP (efficiency) [1] | regioselective glycosylation of trans-resveratrol (position) [2]
1 | COc1cc2ccc(=O)oc2cc1O [scopoletin] | 92% | 
2 | O=c1c(-c2ccc(O)cc2)coc2cc(O)ccc12 [daidzein] | 81% | 
3 | Oc1ccc(/C=C/c2cc(O)cc(O)c2)cc1 [trans-resveratrol] | 100% | 
4 | O=c1ccc2cc(O)c(O)cc2o1 [esculetin] | 70% | 
5 | GT 74B1: Arabidopsis thaliana glycosyltransferase, SEQ ID NO: 35 (nucleotide), 124 (amino acid) (protein, listed as Arabidopsis thaliana) MAETTPKVKGHVVILPYPVQGHLNPMVQFAKRLVSKNVKVTIATTTYTASSITTPSLSVEPISDGFDFIPIGIPGFSVDTYSESFKLNGSETLTLLIEKFKSTDSPIDCLIYDSFLPWGLEVARSMELSAASFFTNNLTVCSVLRKFSNGDFPLPADPNSAPFRIRGLPSLSYDELPSFVGRHWLTHPEHGRVLLNQFPNHENADWLFVNGFEGLEETQDCENGESDAMKATLIGPMIPSAYLDDRMEDDKDYGASLLKPISKECMEWLETKQAQSVAFVSFGSFGILFEKQLAEVAIALQESDLNFLWVIKEAHIAKLPEGFVESTKDRALLVSWCNQLEVLAHESIGCFLTHCGWNSTLEGLSLGVPMVGVPQWSDQMNDAKFVEEVWKVGYRAKEEAGEVIVKSEELVRCLKGVMEGESSVKIRESSKKWKDLAVKAMSEGGSSDRSINEFIESLGK |  | specific for the 4′-OH position
6 | GT 71C2: Arabidopsis thaliana glycosyltransferase, SEQ ID NO: 8 (nucleotide), 109 (amino acid) (protein, listed as Arabidopsis thaliana) MAKQQEAELIFIPFPIPGHILATIELAKRLISHQPSRIHTITILHWSLPFLPQSDTIAFLKSLIETESRIRLITLPDVQNPPPMELFVKASESYILEYVKKMVPLVRNALSTLLSSRDESDSVHVAGLVLDFFCVPLIDVGNEFNLPSYIFLTCSASFLGMMKYLLERNRETKPELNRSSDEETISVPGFVNSVPVKVLPPGLFTTESYEAWVEMAERFPEAKGILVNSFESLERNAFDYFDRRPDNYPPVYPIGPILCSNDRPNLDLSERDRILKWLDDQPESSVVFLCFGSLKSLAASQIKEIAQALELVGIRFLWSIRTDPKEYASPNEILPDGFMNRVMGLGLVCGWAPQVEILAHKAIGGFVSHCGWNSILESLRFGVPIATWPMYAEQQLNAFTIVKELGLALEMRLDYVSEYGEIVKADEIAGAVRSLMDGEDVPRRKLKEIAEAGKEAVMDGGSSFVAVKRFIDGL |  | specific for the 3-OH position
7 | GT 71 D1: Arabidopsis thaliana glycosyltransferase, SEQ ID NO: 12 (nucleotide), 111 (amino acid) (protein, listed as Arabidopsis thaliana) MRNVELIFIPTPTVGHLVPFLEFARRLIEQDDRIRITILLMKLQGQSHLDTYVKSIASSQPFVRFIDVPELEEKPTLGSTQSVEAYVYDVIERNIPLVRNIVMDILTSLALDGVKVKGLVVDFFCLPMIDVAKDISLPFYVFLTTNSGFLAMMQYLADRHSRDTSVFVRNSEEMLSIPGFVNPVPANVLPSALFVEDGYDAYVKLAILFTKANGILVNSSFDIEPYSVNHFLQEQNYPSVYAVGPIFDLKAQPHPEQDLTRRDELMKWLDDQPEASVVFLCFGSMARLRGSLVKEIAHGLELCQYRFLWSLRKEEVTKDDLPEGFLDRVDGRGMICGWSPQVEILAHKAVGGFVSHCGWNSIVESLWFGVPIVTWPMYAEQQLNAFLMVKELKLAVELKLDYRVHSDEIVNANEIETAIRYVMDTDNNVVRKRVMDISQMIQRATKNGGSSFAAIEKFIYDVIGIKP |  | specific for the 3-OH position
8 | GT 72D1: Arabidopsis thaliana glycosyltransferase, SEQ ID NO: 18 (nucleotide), 113 (amino acid) (protein, listed as Arabidopsis thaliana) MDQPHALLVASPGLGHLIPILELGNRLSSVLNIHVTILAVTSGSSSPTETEAIHAAAARTICQITEIPSVDVDNLVEPDATIFTKMVVKMRAMKPAVRDAVKLMKRKPTVMIVDFLGTELMSVADDVGMTAKYVYVPTHAWFLAVMVYLPVLDTVVEGEYVDIKEPLKIPGCKPVGPKELMETMLDRSGQQYKECVRAGLEVPMSDGVLVNTWEELQGNTLAALREDEELSRVMKVPVYPIGPIVRTNQHVDKPNSIFEWLDEQRERSVVFVCLGSGGTLTFEQTVELALGLELSGQRFVWVLRRPASYLGAISSDDEQVSASLPEGFLDRTRGVGIVVTQWAPQVEILSHRSIGGFLSHCGWSSALESLTKGVPIIAWPLYAEQWMNATLLTEEIGVAVRTSELPSERVIGREEVASLVRKIMAEEDEEGQKIRAKAEEVRVSSERAWSKDGSSYNSLFEWAKRCYLVP |  | specific for the 3-OH position
9 | GT 88A1: Arabidopsis thaliana glycosyltransferase, SEQ ID NO: 97 (nucleotide), 133 (amino acid) (protein, listed as Arabidopsis thaliana) MGEEAIVLYPAPPIGHLVSMVELGKTILSKNPSLSIHIILVPPPYQPESTATYISSVSSSFPSITFHHLPAVTPYSSSSTSRHHHESLLLEILCFSNPSVHRTLFSLSRNFNVRAMIIDFFCTAVLDITADFTFPVYFFYTSGAACLAFSFYLPTIDETTPGKNLKDIPTVHIPGVPPMKGSDMPKAVLERDDEVYDVFIMFGKQLSKSSGIIINTFDALENRAIKAITEELCFRNIYPIGPLIVNGRIEDRNDNKAVSCLNWLDSQPEKSVVFLCFGSLGLFSKEQVIEIAVGLEKSGQRFLWVVRNPPELEKTELDLKSLLPEGFLSRTEDKGMVVKSWAPQVPVLNHKAVGGFVTHCGWNSILEAVCAGVPMVAWPLYAEQRFNRVMIVDEIKIAISMNESETGFVSSTEVEKRVQEIIGECPVRERTMAMKNAAELALTETGSSHTALTTLLQSWSPK |  | specific for the 3-OH position
10 | GT 71C4: Arabidopsis thaliana glycosyltransferase, SEQ ID NO: 10 (nucleotide), 110 (amino acid) (protein, listed as Arabidopsis thaliana) MVKETELIFIPVPSTGHILVHIEFAKRLINLDHRIHTITILNLSSPSSPHASVFARSLIASQPKIRLHDLPPIQDPPPFDLYQRAPEAYIVKLIKKNTPLIKDAVSSIVASRRGGSDSVQVAGLVLDLFCNSLVKDVGNELNLPSYIYLTCNARYLGMMKYIPDRHRKIASEFDLSSGDEELPVPGFINAIPTKFMPPGLFNKEAYEAYVELAPRFADAKGILVNSFTELEPHPFDYFSHLEKFPPVYPVGPILSLKDRASPNEEAVDRDQIVGWLDDQPESSVVFLCFGSRGSVDEPQVKEIARALELVGCRFLWSIRTSGDVETNPNDVLPEGFMGRVAGRGLVCGWAPQVEVLAHKAIGGFVSHCGWNSTLESLWFGVPVATWPMYAEQQLNAFTLVKELGLAVDLRMDYVSSRGGLVTCDEIARAVRSLMDGGDEKRKKVKEMADAARKALMDGGSSSLATARFIAELFEDGSSC |  | specific for the 3-OH position

Source: patent US20090280543A1, “REGIOSELECTIVE GLYCOSYLATION” (THE UNIVERSITY OF YORK, priority 2005, published 2009)
